Assay results from article PMC10366140.

Tested on: apRAD51C-CTD-1 R258H (Alvinella pompejana)
Test: fluorescence polarization
Settings: FP: 20 mM HEPES pH 8, 80 mM NaCl, 2.5 mM ATP, 2.5 mM MgCl2, 1 mM DTT, 0.1 mg/mL BSA, 10 nM DNA, 37 C 20 min, EMSA: 20 mM Tris pH 8.0, 150 mM KCl, 4 C 15 min

## TTTTTTTTTTTTTTTTTTTT [poly-20dT]
  Kd: 36.5 µM
